Results as given in patent US20160376363A1 (ALDER BIOPHARMACEUTICALS, published 2016).

How the values were obtained:
human PACAP38 = molecular target: T1, human PACAP38 (human, C-terminal lysine is amidated; N-terminally or C-terminally biotinylated in the HTRF and cell binding assays); test: SPR (ProteOn XPR36), antibody amine-coupled to chip, peptide as analyte, 1:1 Langmuir fit
T1 construct: Synthetic peptide (American Peptide; biotinylated forms from AnaSpec); also called PACAP 1-38; wild-type PACAP peptide (1-38)
T1 peptide: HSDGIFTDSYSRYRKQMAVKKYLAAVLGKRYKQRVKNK

human PACAP27 = molecular target: T2, human PACAP27 (human, C-terminal leucine is amidated; 125I-labelled in Example 10); test: as above
T2 construct: also called 125I-labelled PACAP27
T2 peptide: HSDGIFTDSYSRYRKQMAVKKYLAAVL

Kd (human PACAP38): 0.027 nM | koff (human PACAP38): 1e-05 s⁻¹ | Kd (human PACAP27): 0.013 nM | koff (human PACAP27): 1e-05 s⁻¹
B1: Ab21 (antibody, V domains shown)
VH: QSVEESGGRLVTPGTPLTLTCTVSGIDLSSYYMTWVRQAPGKGLEWVGFIDAGGSAYYATWAKGRFTISKASTTVDLKITSPTTEDTATYFCARDLDLWGPGTLVTVSS
VL: AAVLTQTPSPVSAAVGGTVSISCKSSESVYGDYLAWFQQKPGQPPKQLIYDASTLASGVPSRFKGSGSGTQFTLTISGVQCDDAATYYCAGGYVSAGVAFGGGTEVVVKR
